Test [1] deals with human skin (skin keratin) (human). The test can be described thus: quantitative skin-binding test, after washing with 10% strength SDS; value standardized to the surface.
Test [2] has the same target. The test can be described thus: quantitative skin-binding test on human keratinocytes in microtiter plates, anti-His antibody/TMB; value standardized to the surface.
The target in test [3] is human hair (hair keratin) (human). As to the kind of experiment: quantitative hair-binding test; DENATURED KBD-B on 5 mg human hair, anti-polyHistidine peroxidase conjugate, TMB.
Test [4] shares this target. The test can be described thus: quantitative hair-binding test; renatured KBD-B on 5 mg human hair, anti-polyHistidine peroxidase conjugate, TMB.
Test [5] shares this target. The test can be described thus: quantitative hair-binding test; loss of A405 after 10% SDS relative to untreated hair.
Test [6] has as its target human skin (skin keratin) (human). As to the kind of experiment: quantitative skin-binding test; loss of A405 after 10% SDS relative to untreated skin.
The target in test [7] is human hair (hair keratin) (human). The test can be described thus: quantitative hair-binding test; His-tagged protein on 5 mg human hair, anti-polyHistidine peroxidase conjugate, TMB.
Test [8] has the same target. The test can be described thus: quantitative hair-binding test, after washing with 10% strength SDS; value standardized to the surface.
Test [9] has the same target. The test can be described thus: quantitative hair-binding test on 5 mg human hair, anti-polyHistidine peroxidase/TMB; value standardized to the surface.

B1: KBD-B (SEQ ID No.: 166), keratin-binding domain B of human desmoplakin expressed from pQE30-KBD-B in E. coli (protein)
chain: MRGSHHHHHHGSACELEPHTGLLLLSVQKRSMSFQGIRQPVTVTELVDSGILRPSTVNELESGQISYDEVGERIKDFLQGSSCIAGIYNETTKQKLGIYEAMKIGLVRPGTALELLEAQAATGFIVDPVSNLRLPVEEAYKRGLVGIEFKEKLLSAERAVTGYNDPETGNIISLFQAMNKELIEKGHGIRLLEAQIATGGIIDPKESHRLPVDIAYKRGYFNEELSEILSDPSDDTKGFFDPNTEENLTYLQLKERCIKDEETGLCLLPLKEKKKQVQTSQKNTLRKRRVVIVDPETNKEMSVQEGVDLQPSLIS
For the molecule B1, the Absorption at 405 nm in test [1] turned out to be 0.185; in test [2], 0.93; in test [3], 0.254; in test [4], 1.59. Further, the Relative absorption loss after 10% strength SDS treatment in % in test [5] was 86%; in test [6] it was 80%.

B2: comparison Protein YaaD from B. subtilis (with His tag) (protein, UniProt P37527 1-294, looked up, not shown: small tags and cut ends)
chain: MAQTGTERVKRGMAEMQKGGVIMDVINAEQAKIAEEAGAVAVMALERVPADIRAAGGVARMADPTIVEEVMNAVSIPVMAKARIGHIVEARVLEAMGVDYIDESEVLTPADEEFHLNKNEYTVPFVCGCRDLGEATRRIAEGASMLRTKGEPGTGNIVEAVRHMRKVNAQVRKVVAMSEDELMTEAKNLGAPYELLLQIKKDGKLPVVNFAAGGVATPADAALMMQLGADGVFVGSGIFKSDNPAKFAKAIVEATTHFTDYKLIAELSKELGTAMKGIEISNLLPEQRMQERGW
Regarding B2, the Absorption at 405 nm in test [7] stood at 0.088.

B3: KBD-D (SEQ ID No.: 168), keratin-binding domain D, H. sapiens plakophilin 1a with N-terminal histidine anchor (protein)
chain: MRGSHHHHHHGSACELGTMNHSPLKTALAYECFQDQDNSTLALPSDQKMKTGTSGRQRVQEQVMMTVKRQKSKSSQSSTLSHSNRGSMYDGLADNYNYGTTSRSSYYSKFQAGNGSWGYPIYNGTLKREPDNRRFSSYSQMENWSRHYPRGSCNTTGAGSDICFMQKIKASRSEPDLYCDPRGTLRKGTLGSKGQKTTQNRYSFYSTCSGQKAIKKCPVRPPSCASKQDPVYIPPISCNKDLSFGHSRASSKICSEDIECSGLTIPKAVQYLSSQDEKYQAIGAYYIQHTCFQDESAKQQVYQLGGICKLVDLLRSPNQNVQQAAAGALRNLVFRSTTNKLETRRQNGIREAVSLLRRTGNAEIQKQLTGLLWNLSSTDELKEELIADALPVLADRVIIPFSGWCDGNSNMSREVVDPEVFFNATGCLRNLSSADAGRQTMRNYSGLIDSLMAYVQNCVAASRCDDKSVENCMCVLHNLSYRLDAEVPTRYRQLEYNARNAYTEKSSTGCFSNKSDKMMNNNYDCPLPEEETNPKGSGWLYHSDAIRTYLNLMGKSKKDATLEACAGALQNLTASKGLMSSGMSQLIGLKEKGLPQIARLLQSGNSDVVRSGASLLSNMSRHPLLHRVMGNQVFPEVTRLLTSHTGNTSNSEDILSSACYTVRNLMASQPQLAKQYFSSSMLNNIINLCRSSASPKAAEAARLLLSDMWSSKELQGVLRQQGFDRNMLGTLAGANSLRNFTSRF
On to B3, for which the Absorption at 405 nm is 3.15 in test [1], 3.69 in test [2], 0.62 in test [8] and 0.88 in [9]. In addition, the Relative absorption loss after 10% strength SDS treatment in % worked out at 30% in [5] and 15% in [6].

Source of the values: patent US20090098074A1.
